This is an account of results in article PMC10766989, “The juxtamembrane linker of synaptotagmin 1 regulates Ca^2+ binding via liquid-liquid phase separation” (Nature Communications, 2024).

This data set concerns the molecule itself. The data set is described as follows: dynamic light scattering; protein in solution, 10 µM, 25 mM Tris pH 7.4, 3% PEG 8000, NaCl as indicated (lower ionic strength); diameters modelled as Rayleigh spheres; monomers against higher ordered structures.

B1: GFP-syt1 (80–142) (domain or fragment, UniProt P21707 80-142, looked up)
chain: KKCLFKKKNKKKGKEKGGKNAINMKDVKDLGKTMKDQALKDDDAETGLTDGEEKEEPKEEEKL
notes: synaptotagmin 1 (syt1), juxtamembrane linker, residues 80–142; also called GFP-tagged juxtamembrane linker (80–142); isolated juxtamembrane linker (residues 80–142); source: E. coli BL21(DE3), purified (Ni-NTA, eluted with 200 mM imidazole, dialysed); not shown: msGFP (no linker), N-terminal, kept
With B1, the binding result is “binds”.
